Where two headings read alike, the source gives them in different places.

Assay [1] has as its target T1, extracellular domain of human BLyS protein (hBLyS-ECD), His-tagged, Ala134-Leu285 (human, UniProt Q9Y275 134-285). As to the kind of experiment: cell-based or functional assay.
The target in assay [2] is T2, biotinylated hBLyS-ECD (human, UniProt Q9Y275 134-285, biotinylated with Biotin-X-X-NHS (molar ratio 7:1); sites not stated).
T2 construct: also called biotinylated immunogen; biotinylated hBLvS-ECD
T2 sequence (Q9Y275 134-285): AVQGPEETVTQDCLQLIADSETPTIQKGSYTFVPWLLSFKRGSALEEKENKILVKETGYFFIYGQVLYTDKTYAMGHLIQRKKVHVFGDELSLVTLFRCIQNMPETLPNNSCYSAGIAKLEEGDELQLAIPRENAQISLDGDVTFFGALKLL
As to the kind of experiment: ELISA on captured biotinylated hBLyS-ECD; antibody 2.67 nM. For orientation: An ELISA detects its analyte on a solid surface through an enzyme-linked reagent.

Assay [3] addresses T2, biotinylated hBLyS-ECD. Description: ELISA on captured biotinylated hBLyS-ECD; antibody 0 nM (background).
In assay [4] the target is T2, biotinylated hBLyS-ECD. As to the kind of experiment: ELISA on captured biotinylated hBLyS-ECD; antibody 0.107 nM.
Assay [5] addresses T2, biotinylated hBLyS-ECD. As to the kind of experiment: ELISA on captured biotinylated hBLyS-ECD; antibody 0.00427 nM.
Assay [6] deals with T2, biotinylated hBLyS-ECD. Description: BAFF R-coated ELISA, biotinylated hBLyS-ECD bound in presence of antibody 0.0064 nM.
Assay [7] concerns the target T2, biotinylated hBLyS-ECD. As to the kind of experiment: BAFF R-coated ELISA, biotinylated hBLyS-ECD bound in presence of antibody 0.032 nM.
The target of assay [8] is T2, biotinylated hBLyS-ECD. Description: BAFF R-coated ELISA, biotinylated hBLyS-ECD bound in presence of antibody 100 nM.
In assay [9] the target is T2, biotinylated hBLyS-ECD. Description: BAFF R-coated ELISA, biotinylated hBLyS-ECD bound in presence of antibody 20 nM.
Assay [10] deals with T2, biotinylated hBLyS-ECD. As to the kind of experiment: ELISA on captured biotinylated hBLyS-ECD; antibody 0.0213 nM.
Assay [11] addresses T2, biotinylated hBLyS-ECD. As to the kind of experiment: BAFF R-coated ELISA, biotinylated hBLyS-ECD bound in presence of antibody 0.16 nM.
The target in assay [12] is T2, biotinylated hBLyS-ECD. Description: BAFF R-coated ELISA, biotinylated hBLyS-ECD bound in presence of antibody 0 nM.
Assay [13] addresses T2, biotinylated hBLyS-ECD. As to the kind of experiment: ELISA on captured biotinylated hBLyS-ECD; antibody 13.3 nM.
Assay [14] addresses T2, biotinylated hBLyS-ECD. As to the kind of experiment: BAFF R-coated ELISA, biotinylated hBLyS-ECD bound in presence of antibody 0.8 nM.
Assay [15] addresses T2, biotinylated hBLyS-ECD. As to the kind of experiment: BAFF R-coated ELISA, biotinylated hBLyS-ECD bound in presence of antibody 4 nM.
Assay [16] has as its target T2, biotinylated hBLyS-ECD. As to the kind of experiment: ELISA on captured biotinylated hBLyS-ECD; antibody 0.534 nM.
The target in assay [17] is T1, extracellular domain of human BLyS …. Description: SPR (Biacore), antibody captured by anti-human Fc, hBLyS-ECD as analyte. How it is done: Affinity constants were determined using a Biacore X100 instrument (purchased from GE Healthcare). Detailed operations and methods referred to the instrument manuals and detailed methods provided by manufacturers, specifically: determining affinity constant using a CM5 chip (Sensor Chip CM5, purchased from GE Healthcare). […] Then 1 M ethanolamine was injected in chip to block the remaining activation sites. After the antibody to be tested (i.e., the human BLyS antibody prepared by Embodiment 2) was captured by chip, 7 different gradient of immunogen dilutions (i.e., hBLyS-ECD) prepared by Embodiment 1 were injected and the binding and dissociation of antigen with antibody was detected by a Biacore instrument. The dissociation constant and binding constant were then fitted by Biacore X100 Evaluation Software 2.0, while the affinity constant was the ratio of dissociation constant to binding constant.
The binding and dissociation between antibody and antigen was detected by Biacore.
Background: In SPR one partner is held on a chip, and binding of the other changes the refractive index at the surface.

For assay [18], the target named is T2, biotinylated hBLyS-ECD. Description: ELISA on captured biotinylated hBLyS-ECD; antibody 66.7 nM.
The target of assay [19] is T1, extracellular domain of human BLyS …. As to the kind of experiment: SPR (Biacore), antibody captured by anti-human Fc, hBLyS-ECD as analyte. This is another data set of the same source.

T1 sequence (Q9Y275 134-285): as above

B1: 2-1G11 (antibody, V domains shown)
VH: EVQLVESRGGVVQPGRSLRLSCAASGFTFSSYGMHWVRQAPGKGLEWVAVISYDGSNKYYADSVKGRFTISRDNSKNTLYLQMNSLRAEDAAVYYCARDRVDILTGYSIYGMDVWGQGTTVTVSS
VL: EIVMTQSPATLSLSPGERATLSCRASQSVSSYLAWYQQKPGQAPRLLIYDASKRATGIPARFSGSGSGTDFTLTISSLEPEDFAVYYCQQRSNWPLTFGGGTKVEIK
Turning to B1, the “Proportion of B lymphocytes in splenocytes (%), in vivo in mice” value in assay [1] came out at 25.6%.

B2: h97A3C2H4-9 (antibody, V domains shown)
VH: EVQLVESGGGLVQPGGSLRLSCAASGFTFSTYTMSWVRQAPGKRLEWVAYISYGGGSTSYPDTVKGRFTISRDNAKNSLYLQMNSLRAEDTAVYYCTRHVTVVENSMDYWGQGTTVTVSS
VL: DILLTQSPDFQSVTPKEKVTITCRASQSIGTSIHWYQQKTDQSPKLLIKYVSESFSGTPSRFSGSGSGTDFTLTINSLEAEDAATYYCQQTHSWPWTFGGGTKVEIK
notes: Humanized antibody; VH3-7/JH6 CDR-grafted with A93T, G44R; also called humanized BLyS antibody h97A3C2H4 variant 9 (VH.1b / Vk.1d)
A word on the Kd: it is the concentration at which binding is half-saturated. High values mean a looser complex, low ones a tighter complex. By koff is commonly meant the rate constant with which the complex falls apart. Low values mean slow dissociation, high ones fast dissociation. One may read the kon as the second-order rate constant of association. As for B2, the OD450 nm in [2] worked out at 2.24 OD450 nm; in assay [3], 0.198 OD450 nm; in [4] it was 1.02 OD450 nm; in [5], 0.179 OD450 nm; in assay [6] it was 1.96 OD450 nm; in assay [7] it was 1.98 OD450 nm. Also, the OD450 nm in assay [8] was determined as 0.506 OD450 nm; in assay [9], 0.748 OD450 nm; in assay [10] it was 0.372 OD450 nm; in assay [11] it was 1.81 OD450 nm; in assay [12], 1.94 OD450 nm; in assay [13], 2.27 OD450 nm. In addition, the OD450 nm in [14] came out at 1.56 OD450 nm; in assay [15] it was 1.13 OD450 nm; in [16], 1.88 OD450 nm; in assay [18] it was 2.37 OD450 nm. Also, the Kd in assay [17] turned out to be 1.88 nM. The same molecule showed a koff in assay [17] of 0.000216 s⁻¹. Also, the kon in assay [17] worked out at 115000 M⁻¹ s⁻¹.

B3: h8E7D9C7F5-1 (antibody, V domains shown)
VH: EVQLVQSGAEVKKPGASVKVSCKASGYTFTSYGISWVRQAPGQGLEWMGEIYPRSGNTYYNEKFKGRVTMTTDTSTSTAYMELRSLRSDDTAVYYCARSGPITTLVATDYGMDYWGQGTTVTVSS
VL: DIVMTQSPDSLAVSLGERATINCRASKSVSTSSYSYMHWYQQKPGQPPKLLIKFASNLESGVPDRFSGSGSGTDFTLTISSLQAEDVAVYYCQHSREFPYTFGGGTKVEIK
notes: Humanized antibody; also called humanized BLyS antibody h8E7D9C7F5 variant 1 (VH.1 / Vk.1)
With B3, the OD450 nm in [2] turned out to be 2.18 OD450 nm; in assay [3], 0.129 OD450 nm; in [4], 1.35 OD450 nm; in [5] it was 0.195 OD450 nm; in assay [6], 1.98 OD450 nm; in assay [7] it was 1.87 OD450 nm. In addition, the OD450 nm was 0.45 OD450 nm in assay [8]; 0.721 OD450 nm in [9]; 0.499 OD450 nm in assay [10]; 1.78 OD450 nm in assay [11]; 2.05 OD450 nm in assay [12]; 2.2 OD450 nm in assay [13]. In addition, the OD450 nm in [14] came out at 1.54 OD450 nm; in [15], 1.11 OD450 nm; in [16] it was 1.88 OD450 nm; in assay [18], 2.3 OD450 nm. In assay [17], this molecule came in with a Kd of 4.33 nM. For the same molecule, the koff in assay [17] was 0.000942 s⁻¹. Further, in assay [17], the kon stood at 218000 M⁻¹ s⁻¹.

B4: c35E6F7C3 (antibody, V domains shown)
VH: EVQLQQSGAELVKPGASVKLSCTAAGFNIQDTYIHWVKQRPEQGLEWIGRIDPANANTVYDPKFQGKATITADTSSNTAYLQVSSLTSEDTAVYYCASPVITAGFAYWGQGTLVTVSA
VL: QIVLTQSPAIMSASPGEKVTMTCGASSSVNYVHWYQQKSGTSPKRWIYDTSKLASGVPARFSGSGSGTSYSLTISSMEAEDAATYYCQQWTRSPLTFGAGTKVELK
With B4, in assay [1], the “Proportion of B lymphocytes in splenocytes (%), in vivo in mice” value was determined as 30.5%. In assay [19], binding was characterised by a dissociation constant (Kd) of 1.45 nM, the koff is 0.000277 s⁻¹ and the kon is 190000 M⁻¹ s⁻¹.

The values above are taken from patent US20210347873A1 (SHANGHAI PHARMAEXPLORER, published 2021).
